Reference: PMC2663784
Where “and” joins values, the source holds several entries; their conditions need not be identical. Identical values can stand only once.

Target: humanized 3S193 VL-0-VH scFv multimer (humanized (mouse CDRs on human frameworks))
Test: SEC

stoichiometry N: 3 and 4
B1: humanized 3S193 VL-0-VH scFv multimer (scFv, V domains shown)
VH: EVQLVESGGGVVQPGRSLRLSCSTSGFTFSDYYMYWVRQAPGKGLEWVAYMSNVGAITDYPDTVKGRFTISRDNSKNTLFLQMDSLRPEDTGVYFCARGTRDGSWFAYWGQGTPVTVSS
VL: DIQMTQSPSSLSASVGDRVTITCRSSQRIVHSNGNTYLEWYQQTPGKAPKLLIYKVSNRFSGVPSRFSGSGSGTDFTFTISSLQPEDIATYYCFQGSHVPFTFGQGTKLQIT
